Test results taken from publication PMC10514967, “The terpene synthase (TPS) gene family in kiwifruit shows high functional redundancy and a subset of TPS likely fulfil overlapping functions in fruit flavour, floral bouquet and defence” (Molecular Horticulture, 2023).

Key:
[1] = test system: AcLIS/NES; assay: SPME GC-MS of major terpene product, Michaelis-Menten fit; assay type: biochemical, Actinidia chinensis var. chinensis; conditions: 50 mM Bis-Tris propane pH 7.5, 10 mM MgCl2, 30 °C
Source text: SPME GC-MS of major terpene product, Michaelis-Menten fit on AcLIS/NES

[2] = substrate: CC(C)=CCC/C(C)=C/CC/C(C)=C/CO[P@@](=O)(O)OP(=O)(O)O; assay: as above; assay type: biochemical, Actinidia chinensis; conditions: 50 mM Bis-Tris propane pH 7.5, 10 mM MgCl2, 30 °C
Source text: SPME GC-MS of major terpene product, Michaelis-Menten fit on AcBCS

CC(C)=CCC/C(C)=C/COP(=O)(O)OP(=O)(O)O [GDP]
Km [1]: 30.9 ± 3.81 µM

CC(C)=CCC/C(C)=C/CC/C(C)=C/COP(=O)(O)OP(=O)(O)O [FDP]
Km [1]: 7.43 ± 1.25 µM

B1: AcBCS (Actinidia chinensis var. chinensis) (protein)
chain: MAISCATALPIPTVSTKITMEPLVTRRSANYHPSIWGDHFLAYSSLPTEVDVNMEQEQLHQLKQKVIKMLMAAADKPSQMLNLIDRIQRLGVSYHFKTEIEAALKHIYESDHHFDDLYTVALFFRLLRQQGFPVSCEVFNKFKNNQGKFQECLIGDVVGILCLYEATHLRVRGEEILDEALSFTTTHLESMVPNLSNPVAEHAIHALNQPIHKGLTRLDARQYISFYEQDDSHNKDLLNFAKLDFNLLQKLHQRELCEITRWWKDLDFAKKLPFARDRLVESYFWVLGVYFEPQYWLARRILTKVIAMSSVIDDIYDVYGTLEELALFTDAIERWEISSLDKLPEYMKLCYQALLDIYSTIDEEMAKQGGSYRVYYAKSEMKNLVRGYFEEAKWFHQGYVPSMEEYMQVALLSSGYKMVTTTSFVGMGELATKEAFDWVSSYPLIVEAVSAIARLTDDIVGHKFEQQRGHVASAVECYMKQNGATEEEAIVELYEQVTNAWKDMNAECLYSTKVPMPLLVRVLNLARVINVLYKDEDSYTHSGTRTKNFVTSVLIDSVPIN
Km [2]: 1.54 ± 0.54 µM | Vmax [2]: 0.013 µM/min | kcat [2]: 0.0087 ± 0.002 s⁻¹ | kcat/Km [2]: 5870 ± 1100 M⁻¹ s⁻¹
